Test results reported in article doi:10.1101/2020.01.13.905216 (bioRxiv, 2020).

Molecular target: the molecule itself
Assay: cryo-EM structure

B1: Thermophilic Factor 55 β subunit (TF55β) chaperonin complex from Sulfolobus solfataricus (natural protein, S. solfataricus, UniProt Q9V2T8 1-554, looked up)
chain: MATATVATTPEGIPVIILKEGSSRTYGKEALRANIAAVKAIEEALKSTYGPRGMDKMLVDSLGDITITNDGATILDKMDLQHPTGKLLVQIAKGQDEETADGTKTAVILAGELAKKAEDLLYKEIHPTIIVSGYKKAEEIALKTIQEIAQPVTINDTDVLRKVALTSLGSKAVAGAREYLADLVVKAVAQVAELRGDKWYVDLDNVQIVKKHGGSVNDTQLVYGIVVDKEVVHPGMPKRIENAKIALLDASLEVEKPELDAEIRINDPTQMHKFLEEEENILKEKVDKIAATGANVVICQKGIDEVAQHYLAKKGILAVRRAKKSDLEKLARATGGRVISNIDELTSQDLGYAALVEERKVGEDKMVFVEGAKNPKSVSILIRGGLERVVDETERALRDALGTVADVIRDGRAVAGGGAVEIEIAKRLRKYAPQVGGKEQLAIEAYANAIEGLIMILAENAGLDPIDKLMQLRSLHENETNKWYGLNLFTGNPEDMWKLGVIEPALVKMNAVKAATEAVTLVLRIDDIVAAGKKSGSEPSGKKEKDKEEKSSED
  stoichiometry N: 18
